Measured values taken from patent publication US20020106690A1 (published 2002).

How the values were obtained:
Ste4p, P18851 = molecular target: T1, Ste4p, P18851
T1 chain: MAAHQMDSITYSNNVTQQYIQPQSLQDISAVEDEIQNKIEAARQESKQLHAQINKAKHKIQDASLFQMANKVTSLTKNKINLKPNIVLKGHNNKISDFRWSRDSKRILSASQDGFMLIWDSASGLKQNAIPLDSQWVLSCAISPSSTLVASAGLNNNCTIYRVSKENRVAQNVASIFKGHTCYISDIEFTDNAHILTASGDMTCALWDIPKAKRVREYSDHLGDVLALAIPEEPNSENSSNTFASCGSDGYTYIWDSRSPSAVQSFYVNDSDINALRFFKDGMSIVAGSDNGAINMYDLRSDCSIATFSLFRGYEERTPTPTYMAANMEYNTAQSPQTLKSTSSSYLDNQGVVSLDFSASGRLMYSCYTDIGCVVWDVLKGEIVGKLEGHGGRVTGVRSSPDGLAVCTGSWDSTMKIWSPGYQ

[1] = molecular target: T2, Ste4p (Saccharomyces cerevisiae (yeast)) (UniProt P18851); test: GST pull-down of in vitro-translated 35S-Ste4p with HA-Ste18p present; normalized against wild-type Ste20p 819-939
T2 sequence (35S-labelled methionine in the in vitro-translated form, looked up): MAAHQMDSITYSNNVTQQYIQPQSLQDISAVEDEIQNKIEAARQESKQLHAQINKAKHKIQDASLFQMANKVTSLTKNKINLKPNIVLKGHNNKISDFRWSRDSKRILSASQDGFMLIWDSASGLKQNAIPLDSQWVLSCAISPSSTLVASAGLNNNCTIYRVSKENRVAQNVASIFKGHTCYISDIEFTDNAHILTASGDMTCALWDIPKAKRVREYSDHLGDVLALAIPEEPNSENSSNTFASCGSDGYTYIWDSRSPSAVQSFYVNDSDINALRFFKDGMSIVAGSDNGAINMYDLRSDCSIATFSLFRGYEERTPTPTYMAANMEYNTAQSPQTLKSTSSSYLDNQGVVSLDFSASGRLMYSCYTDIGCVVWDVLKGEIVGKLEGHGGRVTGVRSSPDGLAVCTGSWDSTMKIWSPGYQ

GST-Ste20p FL = molecular target: T3, GST-Ste20p FL (Saccharomyces cerevisiae (yeast), UniProt Q03497 1-939); test: GST pull-down of in vitro-translated 35S-Ste4p mutant, with HA-Ste18p present
T3 construct: Purified on glutathione-Sepharose beads; also called GST fusion with full length Ste20p; not shown: glutathione S-transferase (GST), amino-terminal fusion partner
T3 sequence: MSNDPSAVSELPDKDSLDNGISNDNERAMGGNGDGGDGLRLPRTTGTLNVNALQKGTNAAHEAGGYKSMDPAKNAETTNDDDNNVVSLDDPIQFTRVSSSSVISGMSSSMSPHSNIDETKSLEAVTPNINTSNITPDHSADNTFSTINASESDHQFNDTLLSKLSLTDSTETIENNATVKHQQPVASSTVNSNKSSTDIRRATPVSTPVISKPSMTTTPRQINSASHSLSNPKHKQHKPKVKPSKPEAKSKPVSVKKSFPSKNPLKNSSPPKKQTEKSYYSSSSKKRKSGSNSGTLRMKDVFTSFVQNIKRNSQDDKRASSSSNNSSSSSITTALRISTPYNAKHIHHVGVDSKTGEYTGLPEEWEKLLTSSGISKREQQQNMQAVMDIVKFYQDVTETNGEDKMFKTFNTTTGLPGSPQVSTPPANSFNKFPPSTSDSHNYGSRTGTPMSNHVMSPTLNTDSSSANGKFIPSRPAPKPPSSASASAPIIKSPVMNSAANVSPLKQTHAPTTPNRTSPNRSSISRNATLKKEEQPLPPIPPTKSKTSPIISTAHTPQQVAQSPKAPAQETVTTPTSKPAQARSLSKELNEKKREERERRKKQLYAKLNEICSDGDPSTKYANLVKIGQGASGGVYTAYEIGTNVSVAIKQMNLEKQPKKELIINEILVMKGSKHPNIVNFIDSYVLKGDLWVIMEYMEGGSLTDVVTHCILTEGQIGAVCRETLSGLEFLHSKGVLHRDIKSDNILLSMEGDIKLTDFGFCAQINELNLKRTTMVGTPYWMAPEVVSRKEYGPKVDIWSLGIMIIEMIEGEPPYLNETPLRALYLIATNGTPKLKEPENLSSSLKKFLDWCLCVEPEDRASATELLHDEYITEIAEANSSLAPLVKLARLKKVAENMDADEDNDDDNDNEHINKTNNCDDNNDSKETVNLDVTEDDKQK
Text: Interaction of Ste4p mutants with Ste20p and Ste5p. […] Relative amounts of the GST fusion proteins and of ³⁵S-Ste4p were quantified by densitometric evaluation of Western blots and autoradiographs, respectively. Data are given as percentage of binding of wild-type ³⁵S-Ste4p (mean values ±SD, n≧3).
The beads were then washed three times with PBS, separated by SDS-PAGE and analysed by autoradiography of Western blots. Results were confirmed in at least three independent experiments. Immunodetection and evaluation of immunoblots and radiographs were then performed as described above. Data obtained for ³⁵S-Ste4p were corrected for relative concentrations of the respective GST fusion proteins.

B1: Ste20p^495-888 (protein)
chain: MNSAANVSPLKQTHAPTTPNRTSPNRSSISRNATLKKEEQPLPPIPPTKSKTSPIISTAHTPQQVAQSPKAPAQETVTTPTSKPAQARSLSKELNEKKREERERRKKQLYAKLNEICSDGDPSTKYANLVKIGQGASGGVYTAYEIGTNVSVAIKQMNLEKQPKKELIINEILVMKGSKHPNIVNFIDSYVLKGDLWVIMEYMEGGSLTDVVTHCILTEGQIGAVCRETLSGLEFLHSKGVLHRDIKSDNILLSMEGDIKLTDFGFCAQINELNLKRTTMVGTPYWMAPEVVSRKEYGPKVDIWSLGIMIIEMIEGEPPYLNETPLRALYLIATNGTPKLKEPENLSSSLKKFLDWCLCVEPEDRASATELLHDEYITEIAEANSSLAPLVKLA
FUS1::lacZ expression, Basal (Ste4p, P18851): 1.6 | FUS1::lacZ expression, Induced (Ste4p, P18851): 148 | G1 arrest (Ste4p, P18851): + | Mating efficiencies (%) (Ste4p, P18851): 75.2% | Shmoo formation (Ste4p, P18851): +

B2: GST fusion with the fragment from amino acid 819 to 939 of the Ste20p^S879A/S880A/P883A mutant (protein, not shown: a dimerising Fc or GST; large carriers; small tags and cut ends)
chain: PLRALYLIATNGTPKLKEPENLSSSLKKFLDWCLCVEPEDRASATELLHDEYITEIAEANAALAALVKLARLKKVAENMDADEDNDDDNDNEHINKTNNCDDNNDSKETVNLDVTEDDKQK
Binding to 35S-Ste4p (%) [1]: 15.2%

B3: Ste4p K55E mutant (other, Saccharomyces cerevisiae (yeast), UniProt P18851 1-423, looked up)
chain: MAAHQMDSITYSNNVTQQYIQPQSLQDISAVEDEIQNKIEAARQESKQLHAQINEAKHKIQDASLFQMANKVTSLTKNKINLKPNIVLKGHNNKISDFRWSRDSKRILSASQDGFMLIWDSASGLKQNAIPLDSQWVLSCAISPSSTLVASAGLNNNCTIYRVSKENRVAQNVASIFKGHTCYISDIEFTDNAHILTASGDMTCALWDIPKAKRVREYSDHLGDVLALAIPEEPNSENSSNTFASCGSDGYTYIWDSRSPSAVQSFYVNDSDINALRFFKDGMSIVAGSDNGAINMYDLRSDCSIATFSLFRGYEERTPTPTYMAANMEYNTAQSPQTLKSTSSSYLDNQGVVSLDFSASGRLMYSCYTDIGCVVWDVLKGEIVGKLEGHGGRVTGVRSSPDGLAVCTGSWDSTMKIWSPGYQ
modifications: 35S-labelled methionine
notes: In vitro-translated, 35S-labelled; also called STE4^K55E; 35S-Ste4p K55E
binding result (GST-Ste20p FL): no binding

B4: Ste4p D62N mutant (other, Saccharomyces cerevisiae (yeast), UniProt P18851 1-423, looked up)
chain: MAAHQMDSITYSNNVTQQYIQPQSLQDISAVEDEIQNKIEAARQESKQLHAQINKAKHKIQNASLFQMANKVTSLTKNKINLKPNIVLKGHNNKISDFRWSRDSKRILSASQDGFMLIWDSASGLKQNAIPLDSQWVLSCAISPSSTLVASAGLNNNCTIYRVSKENRVAQNVASIFKGHTCYISDIEFTDNAHILTASGDMTCALWDIPKAKRVREYSDHLGDVLALAIPEEPNSENSSNTFASCGSDGYTYIWDSRSPSAVQSFYVNDSDINALRFFKDGMSIVAGSDNGAINMYDLRSDCSIATFSLFRGYEERTPTPTYMAANMEYNTAQSPQTLKSTSSSYLDNQGVVSLDFSASGRLMYSCYTDIGCVVWDVLKGEIVGKLEGHGGRVTGVRSSPDGLAVCTGSWDSTMKIWSPGYQ
modifications: 35S-labelled methionine
notes: In vitro-translated, 35S-labelled; also called STE4^D62N; 35S-Ste4p D62N
binding result (GST-Ste20p FL): no binding

B5: Ste20p^S879A/S880A/P883A (protein)
chain: MSNDPSAVSELPDKDSLDNGISNDNERAMGGNGDGGDGLRLPRTTGTLNVNALQKGTNAAHEAGGYKSMDPAKNAETTNDDDNNVVSLDDPIQFTRVSSSSVISGMSSSMSPHSNIDETKSLEAVTPNINTSNITPDHSADNTFSTINASESDHQFNDTLLSKLSLTDSTETIENNATVKHQQPVASSTVNSNKSSTDIRRATPVSTPVISKPSMTTTPRQINSASHSLSNPKHKQHKPKVKPSKPEAKSKPVSVKKSFPSKNPLKNSSPPKKQTEKSYYSSSSKKRKSGSNSGTLRMKDVFTSFVQNIKRNSQDDKRASSSSNNSSSSSITTALRISTPYNAKHIHHVGVDSKTGEYTGLPEEWEKLLTSSGISKREQQQNMQAVMDIVKFYQDVTETNGEDKMFKTFNTTTGLPGSPQVSTPPANSFNKFPPSTSDSHNYGSRTGTPMSNHVMSPTLNTDSSSANGKFIPSRPAPKPPSSASASAPIIKSPVMNSAANVSPLKQTHAPTTPNRTSPNRSSISRNATLKKEEQPLPPIPPTKSKTSPIISTAHTPQQVAQSPKAPAQETVTTPTSKPAQARSLSKELNEKKREERERRKKQLYAKLNEICSDGDPSTKYANLVKIGQGASGGVYTAYEIGTNVSVAIKQMNLEKQPKKELIINEILVMKGSKHPNIVNFIDSYVLKGDLWVIMEYMEGGSLTDVVTHCILTEGQIGAVCRETLSGLEFLHSKGVLHRDIKSDNILLSMEGDIKLTDFGFCAQINELNLKRTTMVGTPYWMAPEVVSRKEYGPKVDIWSLGIMIIEMIEGEPPYLNETPLRALYLIATNGTPKLKEPENLSSSLKKFLDWCLCVEPEDRASATELLHDEYITEIAEANAALAALVKLARLKKVAENMDADEDNDDDNDNEHINKTNNCDDNNDSKETVNLDVTEDDKQK
FUS1::lacZ expression (Ste4p, P18851): 14 | G1 arrest (Ste4p, P18851): - | Mating efficiencies (%) (Ste4p, P18851): 0.039% | Shmoo formation (Ste4p, P18851): -

B6: Ste20p^CLA4 (protein)
chain: MSNDPSAVSELPDKDSLDNGISNDNERAMGGNGDGGDGLRLPRTTGTLNVNALQKGTNAAHEAGGYKSMDPAKNAETTNDDDNNVVSLDDPIQFTRVSSSSVISGMSSSMSPHSNIDETKSLEAVTPNINTSNITPDHSADNTFSTINASESDHQFNDTLLSKLSLTDSTETIENNATVKHQQPVASSTVNSNKSSTDIRRATPVSTPVISKPSMTTTPRQINSASHSLSNPKHKQHKPKVKPSKPEAKSKPVSVKKSFPSKNPLKNSSPPKKQTEKSYYSSSSKKRKSGSNSGTLRMKDVFTSFVQNIKRNSQDDKRASSSSNNSSSSSITTALRISTPYNAKHIHHVGVDSKTGEYTGLPEEWEKLLTSSGISKREQQQNMQAVMDIVKFYQDVTETNGEDKMFKTFNTTTGLPGSPQVSTPPANSFNKFPPSTSDSHNYGSRTGTPMSNHVMSPTLNTDSSSANGKFIPSRPAPKPPSSASASAPIIKSPVMNSAANVSPLKQTHAPTTPNRTSPNRSSISRNATLKKEEQPLPPIPPTKSKTSPIISTAHTPQQVAQSPKAPAQETVTTPTSKPAQARSLSKELNEKKREERERRKKQLYAKLNEICSDGDPSTKYANLVKIGQGASGGVYTAYEIGTNVSVAIKQMNLEKQPKKELIINEILVMKGSKHPNIVNFIDSYVLKGDLWVIMEYMEGGSLTDVVTHCILTEGQIGAVCRETLSGLEFLHSKGVLHRDIKSDNILLSMEGDIKLTDFGFCAQINELNLKRTTMVGTPYWMAPEVVSRKEYGPKVDIWSLGIMIIEMIEGEPPYLNETPLRALYLIATNGTPKLKEPENLSSSLKKFLDWCLCVEPEDRASATELLHDEYITEIAEANKDLTSLLEWARLKKVAENMDADEDNDDDNDNEHINKTNNCDDNNDSKETVNLDVTEDDKQK
FUS1::lacZ expression (Ste4p, P18851): 11 | G1 arrest (Ste4p, P18851): - | Mating efficiencies (%) (Ste4p, P18851): 0.016% | Shmoo formation (Ste4p, P18851): -
